Measured values as given in patent US20230248820A1.

Target: HCMV pentameric complex gH/gL/pUL128/pUL130/pUL131A (Pentamer), wild type, Merlin strain (HCMV Merlin strain) (UniProt Q6SW67)
Experiment: method not stated

“8I21 with HCDR3 Trp105 mutated to alanine (antibody)” was tested, and the fold decrease in binding affinity against 8I21 without the mutation was greater than 150 fold.
